Source: patent US20180094059A1 (published 2018)

Legend:
HT1080 = experiment: flow cytometry; HT1080 cells
Colo 205 = experiment: flow cytometry; Colo205 cells
TRAIL-R2-Fc = TRAIL-R2-Fc (human, UniProt O14763 56-210); experiment: ELISA

| EC50 (HT1080) | EC50 (Colo 205) | EC50 (TRAIL-R2-Fc) | Binder |
| --- | --- | --- | --- |
| 3 nM |  |  | Db10-Glyco-scTRAIL3-FAVSGAA (other, glycosylated connecting peptide) LEASDYKDDDDKGAEVQLVESGGGLVQPGGSLRLSCAASGFSLTNYGVHWVRQAPGKGLEWLGVIWSGGNTDYNTPFTSRFTISRDNSKNTLYLQMNSLRAEDTAVYYCARALTYYDYEFAYWGQGTTVTVSSGGGGSGGGGSDIQLTQSPSFLSASVGDRVTITCRASQSIGTNIHWYQQKPGKAPKLLIKYASESISGVPSRFSGSGSGTEFTLTISSLQPEDFATYYCQQNNNWPTTFGAGTKLEIKRAAAGNGTSNGTSEFGGAAAHITGTRGRSNTLSSPNSKNEKALGRKINSWESSRSGHSFLSNLHLRNGELVIHEKGFYYIYSQTYFRFQEEIKENTKNDKQMVQYIYKYTSYPDPILLMKSARNSCWSKDAEYGLYSIYQGGIFELKENDRIFVSVTNEHLIDMDHEASFFGAFAVSGAAAHITGTRGRSNTLSSPNSKNEKALGRKINSWESSRSGHSFLSNLHLRNGELVIHEKGFYYIYSQTYFRFQEEIKENTKNDKQMVQYIYKYTSYPDPILLMKSARNSCWSKDAEYGLYSIYQGGIFELKENDRIFVSVTNEHLIDMDHEASFFGAFAVSGAAAHITGTRGRSNTLSSPNSKNEKALGRKINSWESSRSGHSFLSNLHLRNGELVIHEKGFYYIYSQTYFRFQEEIKENTKNDKQMVQYIYKYTSYPDPILLMKSARNSCWSKDAEYGLYSIYQGGIFELKENDRIFVSVTNEHLIDMDHEASFFGAFAVS |
|  | 4.1 nM | 5.25 nM | scTRAIL3-FAVGGAA (ligand) LDDYKDDDDKEFGGAAAHITGTRGRSNTLSSPNSKNEKALGRKINSWESSRSGHSFLSNLHLRNGELVIHEKGFYYIYSQTYFRFQEEIKENTKNDKQMVQYIYKYTSYPDPILLMKSARNSCWSKDAEYGLYSIYQGGIFELKENDRIFVSVTNEHLIDMDHEASFFGAFAVGGAAAHITGTRGRSNTLSSPNSKNEKALGRKINSWESSRSGHSFLSNLHLRNGELVIHEKGFYYIYSQTYFRFQEEIKENTKNDKQMVQYIYKYTSYPDPILLMKSARNSCWSKDAEYGLYSIYQGGIFELKENDRIFVSVTNEHLIDMDHEASFFGAFAVGGAAAHITGTRGRSNTLSSPNSKNEKALGRKINSWESSRSGHSFLSNLHLRNGELVIHEKGFYYIYSQTYFRFQEEIKENTKNDKQMVQYIYKYTSYPDPILLMKSARNSCWSKDAEYGLYSIYQGGIFELKENDRIFVSVTNEHLIDMDHEASFFGAFAVG |
|  | 4.2 nM |  | scTRAIL3-FLVGGAA (ligand) LDDYKDDDDKEFGGAAAHITGTRGRSNTLSSPNSKNEKALGRKINSWESSRSGHSFLSNLHLRNGELVIHEKGFYYIYSQTYFRFQEEIKENTKNDKQMVQYIYKYTSYPDPILLMKSARNSCWSKDAEYGLYSIYQGGIFELKENDRIFVSVTNEHLIDMDHEASFFGAFLVGGAAAHITGTRGRSNTLSSPNSKNEKALGRKINSWESSRSGHSFLSNLHLRNGELVIHEKGFYYIYSQTYFRFQEEIKENTKNDKQMVQYIYKYTSYPDPILLMKSARNSCWSKDAEYGLYSIYQGGIFELKENDRIFVSVTNEHLIDMDHEASFFGAFLVGGAAAHITGTRGRSNTLSSPNSKNEKALGRKINSWESSRSGHSFLSNLHLRNGELVIHEKGFYYIYSQTYFRFQEEIKENTKNDKQMVQYIYKYTSYPDPILLMKSARNSCWSKDAEYGLYSIYQGGIFELKENDRIFVSVTNEHLIDMDHEASFFGAFLVG |
|  | 12.7 nM |  | scTRAIL3-FLVGGVA (ligand) LDDYKDDDDKEFGGVAAHITGTRGRSNTLSSPNSKNEKALGRKINSWESSRSGHSFLSNLHLRNGELVIHEKGFYYIYSQTYFRFQEEIKENTKNDKQMVQYIYKYTSYPDPILLMKSARNSCWSKDAEYGLYSIYQGGIFELKENDRIFVSVTNEHLIDMDHEASFFGAFLVGGVAAHITGTRGRSNTLSSPNSKNEKALGRKINSWESSRSGHSFLSNLHLRNGELVIHEKGFYYIYSQTYFRFQEEIKENTKNDKQMVQYIYKYTSYPDPILLMKSARNSCWSKDAEYGLYSIYQGGIFELKENDRIFVSVTNEHLIDMDHEASFFGAFLVGGVAAHITGTRGRSNTLSSPNSKNEKALGRKINSWESSRSGHSFLSNLHLRNGELVIHEKGFYYIYSQTYFRFQEEIKENTKNDKQMVQYIYKYTSYPDPILLMKSARNSCWSKDAEYGLYSIYQGGIFELKENDRIFVSVTNEHLIDMDHEASFFGAFLVG |
